Test results published in IntAct's records for PubMed 15148308.

B1: Docking protein 1 (Mus musculus), P97465 (parent)
chain: MDGAVMEGPLFLQSQRFGTKRWRKTWAVLYPASPHGVARLEFFDHKGSSSRGGRGGSRRLDCKMIRLAECVSVVPVTVESPPEPGAVAFRLDTAQRSHLLAADAVSSTAWVQTLCRTAFPKGGWALAQTENQPKFSALEMLENSLYSPTWEGSQFWVTSQKTEASERCGLQGSYILRVEAEKLTLLTLGAQSQILEPLLFWPYTLLRRYGRDKVMFSFEAGRRCPSGPGTFTFQTSQGNDIFQAVEAAIQQQKAQGKVGQAQDILRTDSHDGETEGKTVPPPVPQDPLGSPPALYAEPLDSLRIPPGPSQDSVYSDPLGSTPAGAGEGVHSKKPLYWDLYGHVQQQLLKTKLTDSKEDPIYDEPEGLAPAPPRGLYDLPQEPRDAWWCQARLKEEGYELPYNPATDDYAVPPPRSPKPAPAPKPQGLILPESGTTRGSGSKGFSSDTALYSQVQKSGTSGAWDCGLSKVGNDRAGVKSEGST

Variants of: B1
Settings: with nck1_mouse Nck1, Q99M51
With Y361F the “effect of a mutation on the interaction” value was “disrupting interaction”.
